# In patent publication US10287572B2, “Protein scaffolds and methods of use” (REGENTS OF THE UNIVERSITY OF MINNESOTA, priority 2013, dated 2019):
# Experiments:
# [1] = Circular dichroism thermal denaturation; assay type: physicochemical; conditions: ellipticity at 218 nm, 24-98 °C, PBS
# Method: Purified tGp2 was lyophilized and resuspended in PBS to a concentration of 0.3-0.9 mg mL^−1. Ellipticity was measured from 260 to 200 nm on a Jasco J-815 spectrophotometer (Jasco, Inc., Easton, Md.) in a quartz cuvette with 1 mm path length. Thermal denaturation was carried out by measuring the ellipticity at 218 nm from 24° C. to 98° C. and Tm was calculated from a standard two-state unfolding curve.
# EGFR = target: T1, EGFR (Homo sapiens, UniProt P00533); assay: In vitro cell labeling with tGp2-EGFR-His6, flow cytometry; assay type: cell-based
# T1 construct: endogenous in cells; host or cells: A431, MDA-MB-231, MCF7
# Method: Cells were pelleted, washed with PBSA, and labeled with fluorescein-conjugated rabbit anti-His6 antibody for 15 minutes at 4° C. Cells were pelleted and washed, and analyzed on an Accuri C6 flow cytometer (BD Biosciences, San Jose, Calif.).
# Cell lines were labeled as above with biotinylated tGp2-EGFR-His6. Except, Alexa Fluor 488-conjugated streptavidin was used as the secondary label.
# Additionally, ligand specificity was examined through target blocking. […] Cells were pelleted, washed, and labeled with Alexa Fluor 488-conjugated streptavidin for 15 minutes. After washing, flow cytometry was used to compare fluorescence of blocked and unblocked samples.
# soluble EGFR ectodomain = soluble EGFR ectodomain (Homo sapiens, UniProt P00533); assay: Yeast-displayed Gp2 binding to soluble EGFR ectodomain; conditions: 1 nM soluble EGFR ectodomain
# Method: The plasmid containing the clone of interest was transformed into yeast using the Frozen EZ Transformation Kit II (Zymo Research Corp., Irvine, Calif.), plated on SD medium plates and then grown directly in SG medium at 30° C. for at least 12 hours to induce protein expression. Cells were pelleted and washed with PBSA (phosphate buffered saline with 0.1% bovine serum albumin) and resuspended in PBSA containing biotin conjugated target over a range of concentrations. […] The samples were incubated at 22° C. for an appropriate amount of time to reach 90% of the approach to equilibrium. After incubation, cells were washed and labeled with mouse anti-c-myc antibody (clone 9E10) for 10-15 minutes, washed, and labeled with fluorescein-conjugated goat anti-mouse antibody and Alexa Fluor 647-conjugated streptavidin for 10-15 minutes. Yeast were washed and Alexa Fluor 647 fluorescence was analyzed on a FACSCalibur flow cytometer (BD Biosciences, San Jose, Calif.). The relative fraction bound for cells displaying tGp2 was determined by subtracting background fluorescence of an unlabeled control and normalizing to the maximum saturated signal at high concentrations. The equilibrium dissociation constant, KD, was identified as the concentration where half-maximal binding occurred.
# rabbit IgG = assay: Equilibrium competition titration of soluble tGp2, rabbit IgG; assay type: binding; conditions: soluble protein, read-out: Affinity (KD) of soluble tGp2
# Method: Soluble affinity of select tGp2 proteins was determined using equilibrium competition titration, as described previously (Lipovsek et al., J Mol Biol, 2007, 368:1024-1041). Briefly, the soluble tGp2 clone was allowed sufficient time to reach 90% equilibrium with biotin-conjugated target over a range of tGp2 concentrations. Yeast cells displaying the same tGp2 clone and yeast cells harboring no plasmid (to aid in pelleting) were added to the solution, and allowed to equilibrate for six days. Cells were washed, labeled for target binding and analyzed with flow cytometry, as above.
Substance,Melting temperature (Tm) by circular dichroism [1] [°C],"Binding to human cancer cell lines (EGFR; 0 or 1 μM Gp2 anti-EGFR, flow cytometry)","Blocking of labeled Gp2 binding by unlabeled Gp2 (EGFR; A431 cells, 1 μM unlabeled Gp2)","Kd (EGFR; A431 cells, His tag, anti-His6-FITC, flow cytometry, read-out: Affinity for A431 cells (average of two experiments)) [µM]",Binding of soluble EGFR ectodomain by displaying yeast (soluble EGFR ectodomain),Kd (rabbit IgG) [µM]
"tGp2 wild type: Truncated gene protein 2 of T7 phage, 5.2 kDa, 45 amino acids, SEQ ID NO:1 (KFWATVESSEHSFEVPVYAETLDEALELAEWQYYPAGFEVTRVRP; Enterobacteria phage T7)",67,,,,,
"GaE 2.3.3: EGFR-specific tGp2 scaffold; loop 1 SRGDSYW (SEQ ID NO:2), loop 2 PMYHIYY (SEQ ID NO:3), frame mutation W45R (KFWATVSRGDSYWFEVPVYAETLDEALELAERQYPMYHIYYVTRVRP)",81,binds to human cancer cell lines in an EGFR-dependent manner,blocks binding of labeled Gp2 to A431 cells,0.05,effectively bind,
"GaR 3.2.3: Rabbit IgG-binding tGp2 clone; loop 1 HSVHGY (SEQ ID NO:44), loop 2 GNALGY (SEQ ID NO:45), E44F, W45G (KFWATVHSVHGYFEVPVYAETLDEALELAFGQYGNALGYVTRVRP)",80,,,,,0.001
